Measured values reported in US20070129319.

Key:
[1] = tested on: ubiquitin-Met-beta-galactosidase fusion protein
[2] = target: ubiquitin-Met-beta-galactosidase fusion protein; remark: listed apart in the source

Molecule | cleavage of ubiquitin from the ubiquitin-Met-beta-galactosidase fusion protein (immunoblot with anti-beta-galactosidase) [1] | cleavage of the Ub-Met-beta-gal fusion [2]
GST-DUB-3 fusion protein (pGEX-DUB-3) | DUB-3 displayed deubiquitinating activity at least equivalent to that of DUB-1 | 
GST-DUB-3C89S fusion protein (pGEX-DUB-3C89S) | this activity was ablated by mutating the cysteine residue (C89S) conserved within the active site | 
GST-DUB-1 fusion protein (pGEX-DUB-1) (protein) MVVALSFPEADPALSSPDAPELHQDEAQVVEELTVNGKHSLSWESPQGPGCGLQNTGNSCYLNAALQCLTHTPPLADYMLSQEHSQTCCSPEGCKLCAMEALVTQSLLHSHSGDVMKPSHILTSAFHKHQQEDAHEFLMFTLETMHESCLQVHRQSKPTSEDSSPIHDIFGGWWRSQIKCLLCQGTSDTYDRFLDIPLDISSAQSVKQALWDTEKSEELCGDNAYYCGKCRQKMPASKTLHVHIAPKVLMVVLNRFSAFTGNKLDRKVSYPEFLDLKPYLSEPTGGPLPYALYAVLVHDGATSHSGHYFCCVKAGHGKWYKMDDTKVTRCDVTSVLNENAYVLFYVQQANLKQVSIDMPEGRINEVLDPEYQLKKSRRKKHKKKSPFTEDLGEPCENRDKRAIKETSLGKGKVLQEVNHKKAGQKHGNTKLMPQKQNHQKAGQNLRNTEVELDLPADAIVIHQPRSTANWGRDSPDKENQPLHNADRLLTSQGPVNTWQLCRQEGRRRSKKGQNKNKQGQRLLLVC |  | Deubiquitinating activity was demonstrated for both DUB-1 and DUB-3 fusion proteins by the cleavage of the Ub-Met-β-gal fusion
GST-DUB-1C60S fusion protein (pGEX-DUB-1 (C60)) (protein) MVVALSFPEADPALSSPDAPELHQDEAQVVEELTVNGKHSLSWESPQGPGCGLQNTGNSSYLNAALQCLTHTPPLADYMLSQEHSQTCCSPEGCKLCAMEALVTQSLLHSHSGDVMKPSHILTSAFHKHQQEDAHEFLMFTLETMHESCLQVHRQSKPTSEDSSPIHDIFGGWWRSQIKCLLCQGTSDTYDRFLDIPLDISSAQSVKQALWDTEKSEELCGDNAYYCGKCRQKMPASKTLHVHIAPKVLMVVLNRFSAFTGNKLDRKVSYPEFLDLKPYLSEPTGGPLPYALYAVLVHDGATSHSGHYFCCVKAGHGKWYKMDDTKVTRCDVTSVLNENAYVLFYVQQANLKQVSIDMPEGRINEVLDPEYQLKKSRRKKHKKKSPFTEDLGEPCENRDKRAIKETSLGKGKVLQEVNHKKAGQKHGNTKLMPQKQNHQKAGQNLRNTEVELDLPADAIVIHQPRSTANWGRDSPDKENQPLHNADRLLTSQGPVNTWQLCRQEGRRRSKKGQNKNKQGQRLLLVC |  | DUB-1C60S (lane 3) and DUB-3C89S (lane 5) are catalytically inactive
